Source: the RNAGym collection of RNA variant scans (doi:10.1021/acssynbio.7b00057)

B1: Pistol ribozyme (parent)
chain: GGGUCGUUGUUCCAUAAUCGCGUGGAUAUGGCACGCAAGUUUCUACCGGGCACCGUAAAUGUCCGACUGGAGCCGUUCGGGCGGCUAUAAACAGACCUCAGGCCCGAAGCGUGGCGGCACCUGCCGCCGGUGGUAAAAAAGAUCGGAAGAGCACACGUCU

Variants of: B1
Assay: aptazyme ON/OFF ratio, guanine; higher = stronger switching; co-transcriptional cleavage with and without guanine

| Variant | aptazyme ON/OFF ratio |
| --- | --- |
| U7A U8C G9U U10G U11C C12U C13U | 1.09 |
| U7A U8C G9U U10G U11C C12U C13G | 1.19 |
| U7A U8C G9U U10G U11C C12U C13A | 1.2 |
| U7A U8C G9C U10G U11C C12U C13G | 1.16 |
| U7A U8C G9C U10G U11C C12U C13U | 1.11 |
| U7A U8C G9C U10G U11C C12U C13A | 1.12 |
| U7A U8C G9U U10A C12A C13U | 1.18 |
| U7A U8C G9U U10A C12A C13A | 1.12 |
| U7A U8C G9U U10A C12A C13G | 1.15 |
| U7A U8C G9U U10G C13G | 1.16 |
| U7A U8C G9U U10G C13U | 1.24 |
| U7A U8C G9U U10G C13A | 1.34 |
| U7A U8C G9U U10C U11G C12A | 1.04 |
| U7A U8C G9U U10C U11G C12G | 1.06 |
| U7A U8C G9U U10C U11G C12U | 1.17 |
| U7A U8C G9C U11G C12U C13G | 1.19 |
| U7A U8C G9C U11G C12U C13U | 1.27 |
| U7A U8C G9C U11G C12U C13A | 1.17 |
| U7A U8C G9C U10G U11C C13G | 1.33 |
| U7A U8C G9C U10G U11C C13A | 1.21 |
| U7A U8C G9C U10G U11C C13U | 1.1 |
| U7A U8C G9C U10G U11C C12U | 1.09 |
| U7A U8C G9C U10G U11C C12G | 1.21 |
| U7A U8C G9U U11C C12G | 1.27 |

| Variant | aptazyme ON/OFF ratio |
| --- | --- |
| U7A U8C G9U U11C C12A | 1.28 |
| U7A U8C G9U U11C C12U | 1.15 |
| U7A U8C G9C U11C C12G C13G | 1.13 |
| U7A U8C G9C U11C C12G C13U | 1.09 |
| U7A U8C G9C U11C C12G C13A | 1.07 |
| U7A U8C G9U U10G U11G C12U | 1.25 |
| U7A U8C G9U U10G U11G C12G | 1.22 |
| U7A U8C G9U U10G U11G C12A | 1.18 |
| U7A U8C G9U U10G U11A C12A C13A | 1.04 |
| U7A U8C G9U U10G U11A C12A C13U | 1.41 |
| U7A U8C G9U U10G U11A C12A C13G | 1.13 |
| U7A U8C G9U U11G C12G C13A | 1.22 |
| U7A U8C G9U U11G C12G C13U | 1.07 |
| U7A U8C G9U U11G C12G C13G | 1.16 |
| U7A U8C G9U U10C U11G C12G C13G | 1.11 |
| U7A U8C G9U U10C U11G C12G C13U | 1.06 |
| U7A U8C G9U U10C U11G C12G C13A | 1.17 |
| U7A U8C G9U | 1.94 |
| U7A U8C G9U U10A U11G C12A | 1.07 |
| U7A U8C G9U U10A U11G C12U | 1.35 |
| U7A U8C G9U U10A U11G C12G | 1.12 |
| U7A U8C G9C U11G C12G C13U | 1.11 |
| U7A U8C G9C U11G C12G C13A | 1.12 |
| U7A U8C G9C U11G C12G C13G | 1.12 |

| Variant | aptazyme ON/OFF ratio |
| --- | --- |
| U7A U8C G9U U10G U11G C12G C13G | 1.22 |
| U7A U8C G9U U10G U11G C12G C13A | 1.15 |
| U7A U8C G9U U10G U11G C12G C13U | 1.29 |
| U7A U8C G9U U10G U11A | 1.06 |
| U7A U8C G9U U10G U11C | 1.03 |
| U7A U8C G9U U10G U11G | 1.11 |
| U7A U8C G9U U10C U11A C12G C13U | 1.11 |
| U7A U8C G9U U10C U11A C12G C13A | 1.11 |
| U7A U8C G9U U10C U11A C12G C13G | 1.22 |
| U7A U8C G9U U10A U11C C13A | 1.08 |
| U7A U8C G9U U10A U11C C13G | 1.1 |
| U7A U8C G9U U10A U11C C13U | 1.06 |
| U7A U8C G9U U10C C12U | 1.08 |
| U7A U8C G9U U10C C12A | 1.27 |
| U7A U8C G9U U10C C12G | 1.57 |
| U7A U8C G9U U11A C12A | 1.32 |
| U7A U8C G9U U11A C12G | 1.23 |
| U7A U8C G9U U11A C12U | 1.28 |
| U7A U8C G9C U11C C13A | 1.05 |
| U7A U8C G9C U11C C13U | 1.03 |
| U7A U8C G9C U11C C13G | 1.04 |
| U7A U8C G9U U11C C12U C13G | 1.04 |
| U7A U8C G9U U11C C12U C13U | 1.17 |
| U7A U8C G9U U11C C12U C13A | 1.12 |

| Variant | aptazyme ON/OFF ratio |
| --- | --- |
| U7A U8C G9U C12U | 1.33 |
| U7A U8C G9U C12A | 1.26 |
| U7A U8C G9U C12G | 1.45 |
| U7A U8C G9U U10C U11C C12A | 1.08 |
| U7A U8C G9U U10C U11C C12G | 1.07 |
| U7A U8C G9U U10C U11C C12U | 1.06 |
| U7A U8C G9U U10A U11C C12G | 1.27 |
| U7A U8C G9U U10A U11C C12A | 1.2 |
| U7A U8C G9U U10A U11C C12U | 1.04 |
| U7A U8C G9U U10C U11C C12U C13A | 1.05 |
| U7A U8C G9U U10C U11C C12U C13U | 1.1 |
| U7A U8C G9U U10C U11C C12U C13G | 1.08 |
| U7A U8C G9U U10C U11C C12A C13U | 1.06 |
| U7A U8C G9U U10C U11C C12A C13G | 1.18 |
| U7A U8C G9U U10C U11C C12A C13A | 1.09 |
| U7A U8C G9C U11A C12U C13U | 1.07 |
| U7A U8C G9C U11A C12U C13G | 1.04 |
| U7A U8C G9C U11A C12U C13A | 1.09 |
| U7A U8C G9C U11G C12A C13U | 1.11 |
| U7A U8C G9C U11G C12A C13G | 1.31 |
| U7A U8C G9C U11G C12A C13A | 1.11 |
| U7A U8C G9U U10G U11A C12U C13G | 1.09 |
| U7A U8C G9U U10G U11A C12U C13A | 1.06 |
| U7A U8C G9U U10G U11A C12U C13U | 1.2 |

| Variant | aptazyme ON/OFF ratio |
| --- | --- |
| U7A U8C G9C U11A C13U | 1.05 |
| U7A U8C G9C U11A C13A | 1.05 |
| U7A U8C G9C U11A C13G | 1.07 |
| U7A U8C G9C U10G U11G C12U | 1.05 |
| U7A U8C G9C U10G U11G C12G | 1.13 |
| U7A U8C G9C U10G U11G C12A | 1.24 |
| U7A U8C G9U U10A C12U C13U | 1.42 |
| U7A U8C G9U U10A C12U C13G | 1.17 |
| U7A U8C G9U U10A C12U C13A | 1.29 |
| U7A U8C G9U U10C U11A C12U C13A | 1.13 |
| U7A U8C G9U U10C U11A C12U C13G | 1.09 |
| U7A U8C G9U U10C U11A C12U C13U | 1.15 |
| U7A U8C G9C U11A C12G C13U | 1.13 |
| U7A U8C G9C U11A C12G C13G | 1.16 |
| U7A U8C G9C U11A C12G C13A | 1.09 |
| U7A U8C G9U U10G U11G C13A | 1.18 |
| U7A U8C G9U U10G U11G C13U | 1.17 |
| U7A U8C G9U U10G U11G C13G | 1.14 |
| U7A U8C G9U U10G U11C C12G C13G | 1.17 |
| U7A U8C G9U U10G U11C C12G C13U | 1.21 |
| U7A U8C G9U U10G U11C C12G C13A | 1.22 |
| U7A U8C G9U U10A U11G C12U C13U | 1.21 |
| U7A U8C G9U U10A U11G C12U C13A | 1.17 |
| U7A U8C G9U U10A U11G C12U C13G | 1.21 |

| Variant | aptazyme ON/OFF ratio |
| --- | --- |
| U7A U8C G9U U11C C12G C13G | 1.05 |
| U7A U8C G9U U11C C12G C13U | 1.18 |
| U7A U8C G9U U11C C12G C13A | 1.13 |
| U7A U8C G9U U10A C12G C13G | 1.22 |
| U7A U8C G9U U10A C12G C13U | 1.32 |
| U7A U8C G9U U10A C12G C13A | 1.11 |
| U7A U8C G9U U11C C13G | 1.03 |
| U7A U8C G9U U11C C13A | 1.04 |
| U7A U8C G9U U11C C13U | 1.05 |
| U7A U8C G9U U10A U11C C12G C13G | 1.08 |
| U7A U8C G9U U10A U11C C12G C13A | 1.23 |
| U7A U8C G9U U10A U11C C12G C13U | 1.18 |
| U7A U8C G9U U11A C12A C13A | 1.42 |
| U7A U8C G9U U11A C12A C13U | 1.33 |
| U7A U8C G9U U11A C12A C13G | 1.24 |
| U7A U8C G9C U11A C12G | 1.09 |
| U7A U8C G9C U11A C12A | 1.08 |
| U7A U8C G9C U11A C12U | 1.05 |
| U7A U8C G9C U10G U11G C12U C13U | 1.1 |
| U7A U8C G9C U10G U11G C12U C13A | 1.07 |
| U7A U8C G9C U10G U11G C12U C13G | 1.1 |
| U7A U8C G9C U10G U11G C12A C13U | 1.08 |
| U7A U8C G9C U10G U11G C12A C13A | 1.15 |
| U7A U8C G9C U10G U11G C12A C13G | 1.07 |

| Variant | aptazyme ON/OFF ratio |
| --- | --- |
| U7A U8C G9C U11C C12U | 1.03 |
| U7A U8C G9C U11C C12A | 1.04 |
| U7A U8C G9C U11C C12G | 1.18 |
| U7A U8C G9U U10G U11A C13U | 1.06 |
| U7A U8C G9U U10G U11A C13G | 1.08 |
| U7A U8C G9U U10G U11A C13A | 1.04 |
| U7A U8C G9U U10A U11C C12A C13U | 1.23 |
| U7A U8C G9U U10A U11C C12A C13A | 1.17 |
| U7A U8C G9U U10A U11C C12A C13G | 1.14 |
| U7A U8C G9U U11A C13U | 1.28 |
| U7A U8C G9U U11A C13G | 1.07 |
| U7A U8C G9U U11A C13A | 1.13 |
| U7A U8C U10A C12A C13A | 1.22 |
| U7A U8C G9U U11G C12A C13A | 1.22 |
| U7A U8C G9U U11G C12A C13G | 1.27 |
| U7A U8C G9U U11G C12A C13U | 1.17 |
| U7A U8C G9U U10A U11A C12G C13A | 1.15 |
| U7A U8C G9U U10A U11A C12G C13U | 1.34 |
| U7A U8C G9U U10A U11A C12G C13G | 1.2 |
| U7A U8C G9C U10G U11G C13U | 1.09 |
| U7A U8C G9C U10G U11G C13A | 1.12 |
| U7A U8C G9C U10G U11G C13G | 1.08 |
| U7A U8C G9C U10G U11G | 1.06 |
